Experimental data: patent US20150064134A1

Experiments:
Test in all cases: cell-based or functional assay
FGFR1(V561M)(h) (human) = FGFR1(V561M)(h) (human) (UniProt P11362)
Aurora-A(h) (human) = molecular target: T1, Aurora-A(h) (human) (UniProt O14965)
T1 sequence (looked up): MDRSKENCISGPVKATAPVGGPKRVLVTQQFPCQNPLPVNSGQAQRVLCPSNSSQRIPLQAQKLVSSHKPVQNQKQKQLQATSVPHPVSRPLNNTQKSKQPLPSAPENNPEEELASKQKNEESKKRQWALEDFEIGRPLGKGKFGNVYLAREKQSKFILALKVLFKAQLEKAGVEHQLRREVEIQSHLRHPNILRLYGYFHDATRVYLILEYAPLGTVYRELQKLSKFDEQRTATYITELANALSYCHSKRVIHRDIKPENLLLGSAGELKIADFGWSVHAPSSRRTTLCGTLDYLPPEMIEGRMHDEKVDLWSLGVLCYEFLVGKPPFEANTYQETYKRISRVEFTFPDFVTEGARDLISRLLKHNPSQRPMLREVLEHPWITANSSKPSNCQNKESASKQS

Haspin(h) (human) = molecular target: T2, Haspin(h) (human) (UniProt Q8TF76)
T2 sequence (looked up): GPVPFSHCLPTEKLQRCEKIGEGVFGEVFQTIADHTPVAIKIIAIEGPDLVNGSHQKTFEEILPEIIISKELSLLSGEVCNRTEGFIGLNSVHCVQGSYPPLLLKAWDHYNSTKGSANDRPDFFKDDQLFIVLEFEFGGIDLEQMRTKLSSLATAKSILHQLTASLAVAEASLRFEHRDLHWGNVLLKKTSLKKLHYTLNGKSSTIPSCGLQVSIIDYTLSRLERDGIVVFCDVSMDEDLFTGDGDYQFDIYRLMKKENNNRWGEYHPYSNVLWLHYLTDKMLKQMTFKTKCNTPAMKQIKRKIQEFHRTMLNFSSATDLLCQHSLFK

Met(Y1248C)(h) (human) = Met(Y1248C)(h) (human) (UniProt P08581)
PAK4(h) (human) = PAK4(h) (human) (UniProt O96013)
VRK2(h) (human) = VRK2(h) (human) (UniProt Q86Y07)
Sequence of VRK2(h) (human) (Q86Y07 whole entry): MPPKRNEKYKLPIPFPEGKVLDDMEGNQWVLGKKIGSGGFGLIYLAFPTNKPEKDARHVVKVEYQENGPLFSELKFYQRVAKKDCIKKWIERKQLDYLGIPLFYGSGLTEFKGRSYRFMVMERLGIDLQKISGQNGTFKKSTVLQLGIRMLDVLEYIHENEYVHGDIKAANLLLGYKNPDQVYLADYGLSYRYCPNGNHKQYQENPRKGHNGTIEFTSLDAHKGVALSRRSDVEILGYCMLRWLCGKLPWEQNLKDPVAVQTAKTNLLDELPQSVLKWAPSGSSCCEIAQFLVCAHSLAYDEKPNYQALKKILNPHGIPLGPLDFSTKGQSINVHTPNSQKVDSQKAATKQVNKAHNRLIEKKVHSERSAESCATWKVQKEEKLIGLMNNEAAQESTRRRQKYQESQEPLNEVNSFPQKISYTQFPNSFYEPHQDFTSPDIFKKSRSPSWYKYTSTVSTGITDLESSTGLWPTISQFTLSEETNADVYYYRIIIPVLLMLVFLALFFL

DDR2(h) (human) = molecular target: T3, DDR2(h) (human) (UniProt Q16832)
T3 sequence (looked up): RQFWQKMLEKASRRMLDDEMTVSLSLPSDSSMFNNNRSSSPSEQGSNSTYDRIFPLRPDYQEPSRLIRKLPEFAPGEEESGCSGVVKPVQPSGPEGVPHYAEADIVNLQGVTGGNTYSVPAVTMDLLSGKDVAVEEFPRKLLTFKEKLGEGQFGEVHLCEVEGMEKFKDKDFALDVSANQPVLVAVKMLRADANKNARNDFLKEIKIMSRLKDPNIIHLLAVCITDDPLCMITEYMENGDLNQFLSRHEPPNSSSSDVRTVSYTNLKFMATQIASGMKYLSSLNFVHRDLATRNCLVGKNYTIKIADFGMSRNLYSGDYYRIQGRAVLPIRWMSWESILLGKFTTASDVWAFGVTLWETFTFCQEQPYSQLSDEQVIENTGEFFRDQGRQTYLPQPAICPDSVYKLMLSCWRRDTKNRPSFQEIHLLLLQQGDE

Mer(h) (human) = molecular target: T4, Mer(h) (human) (UniProt Q12866)
T4 sequence (looked up): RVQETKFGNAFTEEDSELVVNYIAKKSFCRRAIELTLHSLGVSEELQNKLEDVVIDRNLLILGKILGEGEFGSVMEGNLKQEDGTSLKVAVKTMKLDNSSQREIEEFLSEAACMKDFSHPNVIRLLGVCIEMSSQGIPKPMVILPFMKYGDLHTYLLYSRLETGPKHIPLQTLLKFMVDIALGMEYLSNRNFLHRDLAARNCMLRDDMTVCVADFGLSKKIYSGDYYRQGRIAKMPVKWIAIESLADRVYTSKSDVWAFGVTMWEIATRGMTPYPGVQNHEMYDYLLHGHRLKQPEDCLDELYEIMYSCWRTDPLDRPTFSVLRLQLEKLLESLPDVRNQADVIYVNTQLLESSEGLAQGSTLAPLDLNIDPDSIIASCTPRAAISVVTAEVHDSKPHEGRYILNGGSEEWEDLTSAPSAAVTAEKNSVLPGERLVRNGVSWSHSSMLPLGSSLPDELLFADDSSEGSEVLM

MuSK(h) (human) = MuSK(h) (human) (UniProt O15146)
MKK7β(h) (human) = MKK7β(h) (human) (UniProt O14733)
Sequence of MKK7β(h) (human) (O14733 whole entry): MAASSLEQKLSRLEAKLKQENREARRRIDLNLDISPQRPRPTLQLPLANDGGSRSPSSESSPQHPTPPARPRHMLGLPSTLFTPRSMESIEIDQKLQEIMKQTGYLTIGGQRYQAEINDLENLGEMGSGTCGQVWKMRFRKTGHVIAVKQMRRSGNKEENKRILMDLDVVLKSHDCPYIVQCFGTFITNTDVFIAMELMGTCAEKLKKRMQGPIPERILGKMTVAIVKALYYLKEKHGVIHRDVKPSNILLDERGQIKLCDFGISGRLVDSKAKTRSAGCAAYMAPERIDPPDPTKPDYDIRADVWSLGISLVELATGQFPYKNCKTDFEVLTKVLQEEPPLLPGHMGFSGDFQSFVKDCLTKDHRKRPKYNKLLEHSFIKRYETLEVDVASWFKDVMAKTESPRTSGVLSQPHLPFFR

TAK1(h) (human) = molecular target: T5, TAK1(h) (human) (UniProt O43318)
T5 sequence (looked up): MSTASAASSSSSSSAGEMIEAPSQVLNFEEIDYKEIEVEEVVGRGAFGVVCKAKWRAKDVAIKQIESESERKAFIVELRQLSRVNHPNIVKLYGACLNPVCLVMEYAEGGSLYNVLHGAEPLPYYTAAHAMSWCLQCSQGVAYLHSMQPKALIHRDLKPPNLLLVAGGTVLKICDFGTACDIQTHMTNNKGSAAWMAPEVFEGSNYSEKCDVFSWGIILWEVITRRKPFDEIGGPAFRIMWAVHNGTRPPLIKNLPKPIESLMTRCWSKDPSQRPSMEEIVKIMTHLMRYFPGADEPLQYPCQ

LIMK1(h) (human) = LIMK1(h) (human) (UniProt P53667)
Abl(T315I)(h) (human) = Abl(T315I)(h) (human) (UniProt P00519)
Sequence of Abl(T315I)(h) (human) (P00519 27-1130 T315I limits assumed): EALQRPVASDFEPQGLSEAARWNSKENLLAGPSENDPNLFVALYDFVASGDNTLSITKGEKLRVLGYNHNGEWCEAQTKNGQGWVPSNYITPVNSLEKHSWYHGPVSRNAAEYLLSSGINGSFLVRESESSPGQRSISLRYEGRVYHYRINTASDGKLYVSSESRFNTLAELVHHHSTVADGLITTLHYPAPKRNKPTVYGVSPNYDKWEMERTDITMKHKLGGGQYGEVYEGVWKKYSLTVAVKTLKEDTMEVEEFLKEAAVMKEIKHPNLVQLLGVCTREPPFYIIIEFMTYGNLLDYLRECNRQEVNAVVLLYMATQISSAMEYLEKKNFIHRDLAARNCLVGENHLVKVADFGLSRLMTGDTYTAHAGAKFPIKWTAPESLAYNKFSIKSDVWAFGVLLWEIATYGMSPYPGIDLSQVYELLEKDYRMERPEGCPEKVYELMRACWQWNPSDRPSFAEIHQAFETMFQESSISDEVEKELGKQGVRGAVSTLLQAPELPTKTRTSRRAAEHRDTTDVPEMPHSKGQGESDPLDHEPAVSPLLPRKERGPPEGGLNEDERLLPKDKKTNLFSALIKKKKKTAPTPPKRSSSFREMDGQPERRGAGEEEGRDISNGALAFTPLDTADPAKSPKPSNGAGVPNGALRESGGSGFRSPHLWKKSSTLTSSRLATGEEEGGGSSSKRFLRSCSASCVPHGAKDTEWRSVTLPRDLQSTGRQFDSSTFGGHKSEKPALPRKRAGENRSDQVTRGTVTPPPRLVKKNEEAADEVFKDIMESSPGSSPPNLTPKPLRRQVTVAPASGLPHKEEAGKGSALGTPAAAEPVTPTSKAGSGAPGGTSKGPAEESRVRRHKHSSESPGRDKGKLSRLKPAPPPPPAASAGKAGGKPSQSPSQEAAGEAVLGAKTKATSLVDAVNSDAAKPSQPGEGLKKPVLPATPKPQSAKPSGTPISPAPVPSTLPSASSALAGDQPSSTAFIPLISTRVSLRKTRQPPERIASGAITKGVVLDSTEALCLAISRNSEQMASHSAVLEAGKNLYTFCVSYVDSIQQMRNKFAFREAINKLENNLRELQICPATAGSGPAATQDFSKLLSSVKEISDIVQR

FGFR3(h) (human) = FGFR3(h) (human) (UniProt P22607)
Sequence of FGFR3(h) (human) (P22607 448-759 limits assumed): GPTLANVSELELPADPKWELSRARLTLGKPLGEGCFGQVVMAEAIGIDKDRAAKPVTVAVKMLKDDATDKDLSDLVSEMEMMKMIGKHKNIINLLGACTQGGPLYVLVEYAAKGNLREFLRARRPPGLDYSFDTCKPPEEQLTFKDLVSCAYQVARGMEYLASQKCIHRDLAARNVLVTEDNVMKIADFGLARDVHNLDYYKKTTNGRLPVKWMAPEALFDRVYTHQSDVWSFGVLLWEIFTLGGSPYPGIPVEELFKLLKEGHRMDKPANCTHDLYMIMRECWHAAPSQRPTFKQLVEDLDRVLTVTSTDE

Sequence of FGFR1(V561M)(h) (human) (P11362 456-765 V561M limits assumed): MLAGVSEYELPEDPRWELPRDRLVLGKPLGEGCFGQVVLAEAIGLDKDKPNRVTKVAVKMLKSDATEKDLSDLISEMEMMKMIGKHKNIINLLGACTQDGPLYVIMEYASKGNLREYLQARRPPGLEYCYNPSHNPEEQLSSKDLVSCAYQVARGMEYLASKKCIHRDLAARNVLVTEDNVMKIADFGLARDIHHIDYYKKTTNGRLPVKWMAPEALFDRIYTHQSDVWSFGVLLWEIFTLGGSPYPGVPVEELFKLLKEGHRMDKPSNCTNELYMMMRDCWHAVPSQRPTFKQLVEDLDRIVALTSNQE

| Substance | % activity at 100 µM (FGFR1(V561M)(h) (human)) | % activity at 100 µM (Aurora-A(h) (human)) | % activity at 100 µM (Haspin(h) (human)) | % activity at 100 µM (Met(Y1248C)(h) (human)) | % activity at 100 µM (PAK4(h) (human)) | % activity at 100 µM (VRK2(h) (human)) | % activity at 100 µM (DDR2(h) (human)) | % activity at 100 µM (Mer(h) (human)) | % activity at 100 µM (MuSK(h) (human)) | % activity at 100 µM (MKK7β(h) (human)) | % activity at 100 µM (TAK1(h) (human)) | % activity at 100 µM (LIMK1(h) (human)) | % activity at 100 µM (Abl(T315I)(h) (human)) | % activity at 100 µM (FGFR3(h) (human)) |
| --- | --- | --- | --- | --- | --- | --- | --- | --- | --- | --- | --- | --- | --- | --- |
| MMI-0300 (peptide) | 74% | 92% | 48% | 84% | 94% | 161% | 94% | 52% | 93% | 100% | 122% | 88% | 97% | – |
| MMI-0400 (peptide) | 74% | – | 36% | 36% | 89% | 185% | 95% | 50% | 93% | 94% | 177% | 92% | – | 0% |
| MMI-0500 (peptide) | – | 110% | 25% | 73% | 86% | 169% | 79% | 17% | 27% | – | – | 87% | 16% | 10% |
